# Residue numbers refer to the chain shown, from its start.
# B1: NRC3_wobSeed141_DR5_C6G_o1 (dsDNA)
# DNA 1: GCAGTGAAAGTTCAGGACGAGGTAACGTAAAGCACGGCGATTGACAGCGTAGAATGAAGG
# DNA 2: CCTTCATTCTACGCTGTCAATCGCCGTGCTTTACGTTACCTCGTCCTGAACTTTCACTGC
# B2: NRC3_random_hg19_147_o1 (dsDNA)
# DNA 1: GCCTCTTGCTCCCTATTGGTCTATTGCACTGCAGAGGCGATTGACAGCGTAGAATGAAGG
# DNA 2: CCTTCATTCTACGCTGTCAATCGCCTCTGCAGTGCAATAGACCAATAGGGAGCAAGAGGC
# B3: NRC3_random_hg19_462_o1 (dsDNA)
# DNA 1: GCCTGCTGCTTTCCTGATTACTGTAGCATCAGGTACGCGATTGACAGCGTAGAATGAAGG
# DNA 2: CCTTCATTCTACGCTGTCAATCGCGTACCTGATGCTACAGTAATCAGGAAAGCAGCAGGC
# B4: NRC3_random_hg19_343_o1 (dsDNA)
# DNA 1: GCCCTGGAGTGTCACTTAGCCACATTCTATTGGCCAGCGATTGACAGCGTAGAATGAAGG
# DNA 2: CCTTCATTCTACGCTGTCAATCGCTGGCCAATAGAATGTGGCTAAGTGACACTCCAGGGC
# B5: NRC3_random_hg19_32_o1 (dsDNA)
# DNA 1: GCTGTGTCAGACAGGCAAAGCACTTAAGATTTGTGAGCGATTGACAGCGTAGAATGAAGG
# DNA 2: CCTTCATTCTACGCTGTCAATCGCTCACAAATCTTAAGTGCTTTGCCTGTCTGACACAGC
# B6: NRC3_random_hg19_246_o1 (dsDNA)
# DNA 1: GCCTCCAGACTGCCTTCAGATTCAAGACGCAAAGGCGCGATTGACAGCGTAGAATGAAGG
# DNA 2: CCTTCATTCTACGCTGTCAATCGCGCCTTTGCGTCTTGAATCTGAAGGCAGTCTGGAGGC
# B7: NRC3_wobSeed93_DR3_A14T_o1 (dsDNA)
# DNA 1: GCAGTCAAAGTTCTTCTAGGTAACGTAAGATATGCTGCGATTGACAGCGTAGAATGAAGG
# DNA 2: CCTTCATTCTACGCTGTCAATCGCAGCATATCTTACGTTACCTAGAAGAACTTTGACTGC
# B8: NRC3_random_hg19_170_o1 (dsDNA)
# DNA 1: GCCTTGCATTGTGGTTTGGATTTGCATTTCCCTAAAGCGATTGACAGCGTAGAATGAAGG
# DNA 2: CCTTCATTCTACGCTGTCAATCGCTTTAGGGAAATGCAAATCCAAACCACAATGCAAGGC
# B9: NRC3_random_hg19_215_o1 (dsDNA)
# DNA 1: GCTGTGGTCCCAAACACCTCAAGCATGACAATGCGTGCGATTGACAGCGTAGAATGAAGG
# DNA 2: CCTTCATTCTACGCTGTCAATCGCACGCATTGTCATGCTTGAGGTGTTTGGGACCACAGC
# B10: NRC3_random_hg19_208_o1 (dsDNA)
# DNA 1: GCAAGAGAGAGACACAATGGCTAAAGAAGGAAGAGTGCGATTGACAGCGTAGAATGAAGG
# DNA 2: CCTTCATTCTACGCTGTCAATCGCACTCTTCCTTCTTTAGCCATTGTGTCTCTCTCTTGC
# B11: NRC3_random_hg19_463_o1 (dsDNA)
# DNA 1: GCCAGGGAGAGAGCCTTGCAAAGATGGAACAATCAGGCGATTGACAGCGTAGAATGAAGG
# DNA 2: CCTTCATTCTACGCTGTCAATCGCCTGATTGTTCCATCTTTGCAAGGCTCTCTCCCTGGC
# B12: NRC3_random_hg19_56_o1 (dsDNA)
# DNA 1: GCTGTGCCTTCTGCACAAGGTAGGTCTACATCCACTGCGATTGACAGCGTAGAATGAAGG
# DNA 2: CCTTCATTCTACGCTGTCAATCGCAGTGGATGTAGACCTACCTTGTGCAGAAGGCACAGC
# B13: NRC3_wobSeed72_DR2_G16T_o1 (dsDNA)
# DNA 1: GCTCGAGTAGGTTACTGGGGCATTCAGGGATGAAGAGCGATTGACAGCGTAGAATGAAGG
# DNA 2: CCTTCATTCTACGCTGTCAATCGCTCTTCATCCCTGAATGCCCCAGTAACCTACTCGAGC
# B14: NRC3_wobSeed72_DR2_G17C_o1 (dsDNA)
# DNA 1: B13 DNA 1 with T16G, G17C
# DNA 2: B13 DNA 2 with C44G, A45C
# B15: NRC3_wobSeed66_DR2_A14G_o1 (dsDNA)
# DNA 1: GCAATACAGGGTCGCTAGGCCAGAGTAGGTACGAATGCGATTGACAGCGTAGAATGAAGG
# DNA 2: CCTTCATTCTACGCTGTCAATCGCATTCGTACCTACTCTGGCCTAGCGACCCTGTATTGC
# B16: NRC3_random_hg19_342_o1 (dsDNA)
# DNA 1: GCATCGGGAGTGATGATAAGTAAGGCAAGCCCTGTTGCGATTGACAGCGTAGAATGAAGG
# DNA 2: CCTTCATTCTACGCTGTCAATCGCAACAGGGCTTGCCTTACTTATCATCACTCCCGATGC
# B17: NRC3_random_hg19_42_o1 (dsDNA)
# DNA 1: GCTTTGTGTGGGCTGTCATTGGATGCTCTGGTCATGGCGATTGACAGCGTAGAATGAAGG
# DNA 2: CCTTCATTCTACGCTGTCAATCGCCATGACCAGAGCATCCAATGACAGCCCACACAAAGC
# B18: NRC3_wobSeed18_DR0_T12G_o1 (dsDNA)
# DNA 1: GCGATACAGGGGCAAGGCCAGAGTACGCGTATTGATGCGATTGACAGCGTAGAATGAAGG
# DNA 2: CCTTCATTCTACGCTGTCAATCGCATCAATACGCGTACTCTGGCCTTGCCCCTGTATCGC
# B19: NRC3_wobSeed113_DR4_G20C_o1 (dsDNA)
# DNA 1: GCATATGTAGGTTAGCTGGCGTCATTCAGACTAGGCGCGATTGACAGCGTAGAATGAAGG
# DNA 2: CCTTCATTCTACGCTGTCAATCGCGCCTAGTCTGAATGACGCCAGCTAACCTACATATGC
# B20: NRC3_random_hg19_329_o1 (dsDNA)
# DNA 1: GCAGGGATGAATAGATCGAAGTTACTGCCCATTCAAGCGATTGACAGCGTAGAATGAAGG
# DNA 2: CCTTCATTCTACGCTGTCAATCGCTTGAATGGGCAGTAACTTCGATCTATTCATCCCTGC
# B21: NRC3_random_hg19_338_o1 (dsDNA)
# DNA 1: GCACACAGAGAAACTCTTGCCAGTAGCAGTAGTACCGCGATTGACAGCGTAGAATGAAGG
# DNA 2: CCTTCATTCTACGCTGTCAATCGCGGTACTACTGCTACTGGCAAGAGTTTCTCTGTGTGC
# B22: NRC3_random_hg19_157_o1 (dsDNA)
# DNA 1: GCCCAAGATCTTGCCACTGCACTCCAGCCTGGATGAGCGATTGACAGCGTAGAATGAAGG
# DNA 2: CCTTCATTCTACGCTGTCAATCGCTCATCCAGGCTGGAGTGCAGTGGCAAGATCTTGGGC
# B23: NRC3_wobSeed28_DR1_A21T_o1 (dsDNA)
# DNA 1: GCCCTACTGGGCCAAAGGTCTTTGATTCCAATGCTCGCGATTGACAGCGTAGAATGAAGG
# DNA 2: CCTTCATTCTACGCTGTCAATCGCGAGCATTGGAATCAAAGACCTTTGGCCCAGTAGGGC
# Biological target: PPARa:RXRa (Homo sapiens, UniProt Q07869;P19793 full;full)
# Sequence (Q07869 whole entry, chain 1 of 2): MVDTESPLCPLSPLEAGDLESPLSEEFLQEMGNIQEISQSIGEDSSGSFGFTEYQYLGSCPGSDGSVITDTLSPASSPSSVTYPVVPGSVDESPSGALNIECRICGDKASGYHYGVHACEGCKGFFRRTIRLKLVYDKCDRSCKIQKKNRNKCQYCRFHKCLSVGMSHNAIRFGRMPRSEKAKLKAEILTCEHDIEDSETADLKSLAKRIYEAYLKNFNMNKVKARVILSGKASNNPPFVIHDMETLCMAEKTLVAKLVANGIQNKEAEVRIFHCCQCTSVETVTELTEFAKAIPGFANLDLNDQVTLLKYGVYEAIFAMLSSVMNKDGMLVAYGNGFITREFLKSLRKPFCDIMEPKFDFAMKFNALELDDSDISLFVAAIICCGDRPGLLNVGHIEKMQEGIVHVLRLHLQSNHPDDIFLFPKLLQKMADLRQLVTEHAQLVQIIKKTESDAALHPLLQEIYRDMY
# Sequence (P19793 whole entry, chain 2 of 2): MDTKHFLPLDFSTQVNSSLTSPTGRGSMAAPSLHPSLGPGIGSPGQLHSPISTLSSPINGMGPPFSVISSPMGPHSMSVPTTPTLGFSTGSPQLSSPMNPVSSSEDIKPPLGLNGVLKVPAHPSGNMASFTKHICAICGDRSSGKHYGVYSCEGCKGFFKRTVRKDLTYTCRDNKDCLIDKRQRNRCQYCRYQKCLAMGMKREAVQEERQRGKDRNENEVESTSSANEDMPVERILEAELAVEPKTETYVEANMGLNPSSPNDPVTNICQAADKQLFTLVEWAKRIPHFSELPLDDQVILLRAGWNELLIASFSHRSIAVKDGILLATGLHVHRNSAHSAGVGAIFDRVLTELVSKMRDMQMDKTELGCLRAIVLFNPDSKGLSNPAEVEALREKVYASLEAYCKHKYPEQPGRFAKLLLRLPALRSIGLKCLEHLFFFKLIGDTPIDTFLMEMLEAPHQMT
# Assay: no ligand; PBM; 270 nM : 90 nM RXRa; PBS pH 7.4, 2% milk, 0.02% Triton X-100, 1 mM DTT, BSA, 0.4 mg/ml salmon testes DNA
# Conditions: tags: GST kept;His cleaved; copies: 1;1; label: surface-attached array probe
# Method in brief: (§1)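 Custom Agilent 4×180K protein-binding microarrays carried double-stranded probes, each with a 34-nt variable region. These regions held direct-repeat seeds, single-nucleotide variants, half-site ablations and random human genomic background sequences. Ligand-free nuclear receptor dimers were incubated on the arrays for 1 h, antibodies against each partner (one per run) detected binding, and scanned fluorescence was regression-normalized. Binding z-scores take the random background probes as reference.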
row,Binder,binding signal
1,B1,3.27 PBM z-score against 500 random probes
2,B2,0.48 PBM z-score against 500 random probes

# Biological target: PXR:RXRa (Homo sapiens, UniProt O75469;P19793 full;full)
# Sequence (O75469 whole entry, chain 1 of 2): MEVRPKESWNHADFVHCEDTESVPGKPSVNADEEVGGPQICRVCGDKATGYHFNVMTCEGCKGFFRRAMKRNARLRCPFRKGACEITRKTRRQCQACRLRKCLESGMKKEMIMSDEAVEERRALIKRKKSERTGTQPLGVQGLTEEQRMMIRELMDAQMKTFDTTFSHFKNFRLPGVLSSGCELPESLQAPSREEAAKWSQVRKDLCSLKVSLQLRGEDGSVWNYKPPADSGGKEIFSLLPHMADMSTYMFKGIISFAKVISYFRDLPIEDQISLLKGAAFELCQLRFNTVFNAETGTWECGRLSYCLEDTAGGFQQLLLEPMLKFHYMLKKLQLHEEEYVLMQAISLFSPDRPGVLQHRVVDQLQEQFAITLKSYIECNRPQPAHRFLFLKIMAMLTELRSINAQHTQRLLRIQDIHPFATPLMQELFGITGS
# Sequence (P19793 whole entry, chain 2 of 2): as the sequence (P19793 whole entry, chain 2 of 2) above
# Assay: as above
# Conditions: tags: His kept;His cleaved; copies: 1;1; label: surface-attached array probe
# Method in brief: as §1
row,Binder,binding signal
1,B3,-0.18 PBM z-score against 500 random probes
2,B4,0.14 PBM z-score against 500 random probes
3,B5,-0.5 PBM z-score against 500 random probes
4,B6,-0.41 PBM z-score against 500 random probes
5,B7,0.13 PBM z-score against 500 random probes
6,B8,0.34 PBM z-score against 500 random probes
7,B9,-0.46 PBM z-score against 500 random probes
8,B1,3 PBM z-score against 500 random probes
9,B10,0.26 PBM z-score against 500 random probes
10,B11,-0.42 PBM z-score against 500 random probes
11,B2,0.25 PBM z-score against 500 random probes
12,B12,-0.54 PBM z-score against 500 random probes
13,B13,0.31 PBM z-score against 500 random probes
14,B14,0.24 PBM z-score against 500 random probes
15,B15,0.28 PBM z-score against 500 random probes
16,B16,-0.7 PBM z-score against 500 random probes
17,B17,0.44 PBM z-score against 500 random probes
18,B18,-0.01 PBM z-score against 500 random probes
19,B19,-0.13 PBM z-score against 500 random probes
20,B20,0.08 PBM z-score against 500 random probes
21,B21,-0.32 PBM z-score against 500 random probes
22,B22,-0.24 PBM z-score against 500 random probes
23,B23,-0.05 PBM z-score against 500 random probes

# Reference: PMC6555819, “Comprehensive study of nuclear receptor DNA binding provides a revised framework for understanding receptor specificity”
